Some results are limits rather than exact numbers.

Assay [1] concerns TOP10 E. coli cells. In words: minimum inhibitory concentration experiment: growth of E. coli in liquid media with glufosinate. Type of assay: cell-based. Here is the method:
FIG. 1 provides a minimal inhibitory concentration experiment. A polynucleotide encoding SEQ ID NO: 1 was transformed into E. coli cells for protein expression with an N-terminal maltose binding protein. The resulting E. coli clone was analyzed for the ability to grow in the presence of glufosinate.
Predicted ORFs (open reading frames) and protein products from genome sequences of several bacterial isolates were identified. A predicted protein was found with 43.53% identity to the phosphinothricin acetyltransferase (PAT) gene. This gene coding for a new GluR (glufosinate resistance) protein was cloned from that strain and is referred to herein as GluRAP1 and set forth in SEQ ID NO:1 (protein sequence) and 2 (DNA sequence). […] The gene coding for SEQ ID NO: 1 was cloned into the pMAL vector and transformed into TOP10 E. coli cells for protein expression with an N-terminal Maltose Binding Protein. […]
The strain was subsequently grown with success on 100 mM glufosinate-supplemented M63 minimal media; while the gene coding for a new GluR (glufosinate resistance) protein was cloned from that strain and referred to herein as GluRAP and set forth in SEQ ID NO:1 and 2. […] The resulting E. coli clone was analyzed for the ability to grow in the presence of glufosinate. […]

Assay [2] concerns E. coli. In words: growth of E. coli expressing MBP fusions under various glufosinate concentrations after IPTG induction (FIG. 3). Format: cell-based. The note with it: compared with the other genes. Here is the method:
Genes coding for glufosinate-resistant proteins were cloned as MBP (Maltose Binding Protein) fusions and expressed in E. coli. These E. coli strains were grown. The ability of the strains to tolerate and continue to grow in the presence of glufosinate was measured under various glufosinate concentrations upon induction of gene expression by addition of IPTG into the media in which the strains were growing.

Assay [3] relates to soy callus. Nature of the assay: selection of transformed soy callus on medium containing glufosinate. Type of assay: cell-based, soybean. The note with it: medium containing 25 uM glufosinate; construct pSV37; GUS stain confirmed. Here is the method: Transgenic plants were selected by incubating callus on medium containing 25 uM glufosinate.
Transgenic plants were selected by incubating callus on medium containing 25 uM glufosinate. […] (FIG. 4) See above for construct pSV37 that carries APG00318 gene.

For the molecule `CP(=O)(O)CCC(N)C(=O)O` (stereo not drawn) [glufosinate], the “glufosinate concentration tolerated by control E. coli” value in assay [1] (control E. coli, minimum inhibitory concentration experiments) was not above 1 mM.

B1: SEQ ID NO: 9: glufosinate resistance protein from Serratia sp. strain APG00119, encoded by SEQ ID NO: 10 (protein)
chain: MTTLSAPVLSLLDATPDDMAAVLRIYTQHVLYGAASFEEQPPTLAEMQLRLSKVREAGLPWLVAKSAGVIVGYCYATPYRPRPAYRFTVEDSVYIAEGQQGKGIGRALLSALIARCEQGPWRQMLAIVGDSAANRGSLALHQSLGFTSAGTLKAVGFKLGEWRDTQIMQRALGAGGNRHP
modifications: Serratia sp. strain APG00119
On to B1, for which, in assay [2], the “tolerance level to glufosinate of E. coli cultures carrying the gene” value (“tolerance level to glufosinate” below) was “higher tolerance level to glufosinate”.

B2: SEQ ID NO: 7: glufosinate resistance protein from Flavobacterium sp. strain APG00135, encoded by SEQ ID NO: 8 (protein)
chain: MSVILRPATVNDLEKILEIVNHSILHTTANYSYDIQTIEVQTKWFEDKKAKNLPIVVADLDGEVVGFGSYGQFREKIGYQYTVEHSVYVVDNVIGKGIGSKLLTELIRLAKEQGYHVMIGAIDADNAGSITFHEKFGFVATGTIREVGYKFDHWLDLVFMQLILK
modifications: Flavobacterium sp. strain APG00135
On to B2, for which, in assay [2], the “tolerance level to glufosinate” value is recorded as “higher tolerance level to glufosinate”.

B3: SEQ ID NO:1: glufosinate resistance protein from Pseudomonas sp. strain APG00318, encoded by SEQ ID NO: 2 (protein)
chain: MSKTTVRIAQVSDAQAIQAIYAPMVESTTISFELEPPSVEEMAMRIESTLLTYPYLVAVRDGQVIGYAYASQHRAREAYRWSVDVTVYISPEAHRSGVGRALYDVLLPTLKKQGFHAAYAGIALPNDGSVGLHEALGFAHIGTYPEVGFKHGAWRDVGYWRIALDSTNPPKLPVLFSEISLF
modifications: Pseudomonas sp. strain APG00318
With B3, the “concentration of glufosinate at which the E. coli clone was able to grow in liquid media” value in assay [1] (E. coli clone expressing the protein with N-terminal maltose binding protein (pMAL)) is listed as 100 mM. In addition, the “tolerance level to glufosinate” value in assay [2] is given as “higher tolerance level to glufosinate”. Also, in assay [3], the “glufosinate resistance of transformed soy callus” value was “Glufosinate resistance was observed”.

Values taken from patent US10344295B2, “Methods and compositions for providing resistance to glufosinate” (priority 2014, dated 2019).
